Laboratory results from the supplement of paper PMC10567573.
± gives the standard deviation.

Test: protein stability index of a GFP-peptide fusion (GPS, HEK-293T) (PSI 1-6); higher = more stable
Settings: c terminus: a fixed tail appended
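Note: 24-mer peptide tiles fused after GFP, lentivirally expressed, FACS-sorted into six equal bins by GFP/DsRed ratio, decoded by Illumina sequencing, PSI is the read-weighted mean bin number.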

Sequence	protein stability index (treatment: DMSO)	protein stability index (treatment: MLN4924 1 uM, 8 h)
EGRFWKSKNEDRGEEEAESSISST [ZMYND11]	5.65 ± 0.2	5.71 ± 0.13
EGYKDADYWLRRFEAEPLPENTNR [PI4K2A]	4.52 ± 0.13	4.41 ± 0.16
EHERAHRGEKPHGCSLCGKAFYKR [ZNF649]	2.79 ± 0.11	3.45 ± 0.59
EHKSLTGTARYMSINTHLGKEQSR [CSNK1G3]	4.02 ± 0.095	3.82 ± 0.38
EHTGEVRTARALLDRDALKQSLVV [PCDHGA10]	3.23 ± 0.2	3.3 ± 0.26
EHVSRALCIHTGRELRCKVFPIKH [TRIB1]	2.21 ± 0.13	2.61 ± 0.3
EIDSVPKTQSELASESEHIPKPQS [MIA2]	5.42 ± 0.26	5.49 ± 0.2
EIVVTISWAKSIPGFSSLSLSDQM [ESRRA]	3.19 ± 0.5	2.59 ± 0.22
EKAMAEWVKQQAEREAEKEQKRLE [SDE2]	5.5 ± 0.34	5.57 ± 0.18
EKRGFTSHFVFVIEVKTKGGSKYL [NCF4]	3.02 ± 1.1	3.64 ± 1.1
EKVEVQLPELFHKIGVGAMTWSPL [KCNAB2]	2.45 ± 0.26	2.51 ± 0.16
ELCRDAAQFRLLSEVEELNMSLTA [TEKT4]	2.85 ± 0.34	2.77 ± 0.28
ELLKEAELIRNIQELLKRTIMQAV [TEKT4]	2.4 ± 0.2	2.27 ± 0.31
ELPKPEVISQLEQGTELWVAERGT [ZNF8]	4.76 ± 0.17	4.82 ± 0.66
ELRDISSMAMEYFDEKIVPILKRK [FBXO28]	2.78 ± 0.36	3 ± 0.45
ELSNFKSQKVLGLNEDPLKWWSDR [ZBED1]	2.73 ± 0.17	2.97 ± 0.26
ELVHFLLLKYRAREPVTKAEMLGS [MAGEA3]	2.54 ± 0.63	2.73 ± 0.92
ELVPHPETAPTTVDRTHALMKKIG [CRYL1]	4.31 ± 0.23	4.48 ± 0.35
ENGSVSSSETPPPPPPPNEINPPP [EIF5]	5.32 ± 0.18	5.35 ± 0.17
ENLEGVPSVCSENIHPQVLLPDQA [ZNF263]	5 ± 0.39	4.96 ± 0.11
ENQRLFEMLGRKCLTLATAVVQLY [WAS]	2.26 ± 0.21	2.44 ± 0.33
EPDANFPQFLHEGLSKPVYVINWF [FAM104B]	2.37 ± 0.43	2.48 ± 0.36

Sequence	protein stability index (treatment: DMSO)	protein stability index (treatment: MLN4924 1 uM, 8 h)
EPVAEIGVGAYGTVYKARDPHSGH [CDK4]	4.11 ± 0.32	4.1 ± 0.28
EPVIKVAAIDNGLAFPLKHPDSWR [PI4K2A]	3.41 ± 0.28	3.02 ± 0.23
EQGFSQSFTQEQVADIDGQYAMTR [CTNNB1]	4.86 ± 0.083	4.61 ± 0.16
EQHAGTSEGLHLAGTAGHPPSGSQ [FBF1]	5.19 ± 0.3	5.2 ± 0.15
EQLQQILKRKNKQAFLDELESSDL [MNAT1]	3.48 ± 0.46	3.73 ± 0.39
EQTCDPDSSLHWSSSYSPETFRQQ [ZNF396]	4.43 ± 0.12	4.58 ± 0.12
EQYERNKSSSSSSSSSSSSSSSSS [TMEM40]	5.46 ± 0.32	5.49 ± 0.27
ERAKELYSSGEFSSGRKWGDDAPK [INTS4]	4.77 ± 0.33	4.66 ± 0.14
EREEITTKKRKLGKNPDVDTSFLP [FAM50A]	4.63 ± 0.35	4.79 ± 0.24
ESCEKNDPLSLLDDSKFPIEDTPL [PCDHGA10]	5.5 ± 0.34	5.463 ± 0.028
ESKMYATSPYSDPVVSMDLDPQPI [PTPRD]	4.18 ± 0.53	4.42 ± 0.047
ESPSTLQVLPDSESLPRSEIDEKV [MAGEA10]	5.62 ± 0.19	5.63 ± 0.3
ESRDRPSCAPSASIPKLKLTRPVP [PWWP2B]	4.26 ± 0.2	4.16 ± 0.14
ESVEGVVRILLEHYYKENDPSVRL [INTS4]	2.22 ± 0.46	2.46 ± 0.16
ETAPTTVDRTHALMKKIGQCPMRV [CRYL1]	3.59 ± 0.14	3.68 ± 0.2
ETRQKKLEVAMEEEGLADEEKKLR [STK38L]	5.51 ± 0.18	5.6 ± 0.21
ETSYLEMAAGSEPESVEASPVVVE [KMT2E]	5.38 ± 0.27	5.18 ± 0.34
ETVVSYLPLSHIAAQMMDIWVPIK [ACSBG2]	2.14 ± 0.36	2.04 ± 0.14
EVLREQAGGDATENFEDVGHSTDA [CYB5A]	5.57 ± 0.43	5.67 ± 0.19
EVPEMSPVTCCDVSSNNRLVVTGS [TLE6]	4.35 ± 0.31	4.57 ± 0.1
EVSNPSKPGRKTNQLQYMQNVVVK [BRD3]	3.66 ± 0.11	3.79 ± 0.28
EWNEKVTQSDLYKKTQETLSQAGQ [TPD52L2]	4.39 ± 0.35	4.4 ± 0.17

Sequence	protein stability index (treatment: DMSO)	protein stability index (treatment: MLN4924 1 uM, 8 h)
FAGGFVDFGACDGGLLTGNEKITM [KRT13]	2.73 ± 0.32	2.56 ± 0.079
FAQYDSFHVDSAAEYYRLHLEGYH [TNXB]	2.43 ± 0.81	2.26 ± 0.23
FARNGALSTHNWTYWQCGQYLGVG [RSAD1]	2.63 ± 0.66	2.17 ± 0.17
FATASAAVPVSTSKPSSDLLDLQP [SNAP91]	4.01 ± 0.28	4.1 ± 0.41
FAYKDEYEKFKLYLTIILILISFT [TMEM120A]	2.83 ± 0.35	2.46 ± 0.52
FCLQKLISLHPFNPWNWGKLAEAY [C8orf76]	2.85 ± 0.49	2.82 ± 1.3
FDLCDRTFSLKTVLMIAIQLISRM [CSNK1G3]	2.89 ± 0.21	2.54 ± 0.46
FEEPEDPSNRSFFSEIISSISDVK [PPP2R2B]	4.09 ± 0.18	4.32 ± 0.15
FFKGLVEAVESTLQTPLDIRLKES [TRIM14]	2.15 ± 0.33	2.29 ± 0.28
FGAVVRWAEAECQRQQLPVTFGNK [BTBD1]	2.57 ± 0.3	2.84 ± 0.18
FGGGCDLTPTYLNQEDAIHFHRTL [CPOX]	2.62 ± 0.4	2.81 ± 0.3
FHKDCASRVNNASYCPHCGEESSK [EHMT1]	3.45 ± 0.15	4.05 ± 0.47
FKISGMNGIHVCMVFEVLGHHLLK [SRPK2]	3.01 ± 0.34	2.92 ± 0.31
FKPACMSEIKNLERYMCSRFFIDF [TENT5D]	2.55 ± 0.61	2.42 ± 0.58
FLCAAGDAGEESRVQVLKNEVRRG [TIAF1]	4.18 ± 0.31	4.22 ± 0.11
FLLQNDANPSIRDKEGYNSIHYAA [ANKRD44]	2.75 ± 0.25	2.85 ± 0.32
FLLVLAVVAGDTVSTGSTDNSPTS [ADAMTSL2]	2.5 ± 0.45	2.28 ± 0.43
FLQKVAQMPQEEVELLPPAPKGKG [BRD3]	4.24 ± 0.17	4.32 ± 0.13
FLRSIDQFANLVLHQTVERIHVGK [LSM1]	2.95 ± 0.55	2.46 ± 0.39
FNIAGTVVKYRRPMDVYETGIEYI [ADAMTSL2]	2.16 ± 0.33	1.8 ± 0.046
